From IntAct's records for PubMed 16303566 come the findings set out here.

The labels stand for the following.
B1: Gigaxonin (Homo sapiens), Q9H2C0 (parent)
chain: MAEGSAVSDPQHAARLLRALSSFREESRFCDAHLVLDGEEIPVQKNILAAASPYIRTKLNYNPPKDDGSTYKIELEGISVMVMREILDYIFSGQIRLNEDTIQDVVQAADLLLLTDLKTLCCEFLEGCIAAENCIGIRDFALHYCLHHVHYLATEYLETHFRDVSSTEEFLELSPQKLKEVISLEKLNVGNERYVFEAVIRWIAHDTEIRKVHMKDVMSALWVSGLDSSYLREQMLNEPLVREIVKECSNIPLSQPQQGEAMLANFKPRGYSECIVTVGGEERVSRKPTAAMRCMCPLYDPNRQLWIELAPLSMPRINHGVLSAEGFLFVFGGQDENKQTLSSGEKYDPDANTWTALPPMNEARHNFGIVEIDGMLYILGGEDGEKELISMECYDIYSKTWTKQPDLTMVRKIGCYAAMKKKIYAMGGGSYGKLFESVECYDPRTQQWTAICPLKERRFGAVACGVAMELYVFGGVRSREDAQGSEMVTCKSEFYHDEFKRWIYLNDQNLCIPASSSFVYGAVPIGASIYVIGDLDTGTNYDYVREFKRSTGTWHHTKPLLPSDLRRTGCAALRIANCKLFRLQLQQGLFRIRVHSP

In this assay the parent is B1. The following applies: with tbcb_human TBCB.
On to R545C, for which the “effect of a mutation on the interaction” value is “disrupting interaction”.
